These results are taken from article PMC8360832, “Butyryl/Caproyl-CoA:Acetate CoA-transferase: cloning, expression and characterization of the key enzyme involved in medium-chain fatty acid biosynthesis” (Bioscience Reports, 2021).

Substrate in this series: CCCC(=O)SCCNC(=O)CCNC(=O)[C@H](O)C(C)(C)COP(=O)(O)OP(=O)(O)OC[C@H]1O[C@@H](n2cnc3c(N)ncnc32)[C@H](O)[C@@H]1OP(=O)(O)O
Description: purified protein. The settings on record: 200 mM sodium acetate, 100 mM potassium phosphate pH 7, 25 °C. In kind it is biochemical, Clostridium tyrobutyricum.

B1: BEY8-CoAT (BCoAT) (Clostridium tyrobutyricum DIVETGP) (protein)
chain: MSFEELYKSKVVSADEAVSHIKSGDKIVFGHACAEPQVLLNALVKNKEKYKNVELYHMIPKGETNYAEPGVEKYIHDNSFFTGKGTSEAIQEGRADFIPVFFSEIPRLFKKGYIPVDVALIEVSKPDEHGYCSFGVSNDYIHAGAECAKLVIAEVNENMPRVFGNNFIHVSDIDYIVESSRPVVEMQPSKIGDVEKAIGKYCASLVEDGSTLQLGIGAIPDAVLLFLKDKKDLGIHSEMISDGVVELVKAGVITNKKKTLHPGKIVVTFLMGTKKLYDFIDNNPEVESHPVDYVNNPTVIMKNCKMVCINSCVEIDLMGQICSESIGLKQISGVGGQIDFTRGASMAEDGKSIIAIPSTAAHGKVSRIVPFLNQGAAITTSRNDVHYVITEYGIAQLRGKTLKQRARELIK
notes: full-length, His tag (N-terminal), pET28a, E. coli BL21 (DE3), Ni-NTA; gene 1233 bp, 46 kDa
As usually defined, the Km is the substrate concentration at which the rate is half of its maximum. Broadly, the kcat is the maximal rate divided by the concentration of active sites. As a reminder, the kcat/Km is the second-order rate constant that governs catalysis at low substrate concentration. Take B1: the Km is 370 ± 4.1 µM, the kcat was found to be 0.232 ± 0.0117 s⁻¹ and the kcat/Km stood at 628.3 ± 3.33 M⁻¹ s⁻¹.
